Laboratory results published in US20090285799A1.

Legend:
[1] = molecular target: T1, hIL-13Rα1.ECR (N-terminal FLAG-tagged fusion protein of the extracellular region of human IL-13Rα1) (human) (UniProt P78552); assay: BIACORE SPR, hIL-13Rα1.ECR immobilized on CM5 chip, antibody as analyte, bivalent model
T1 sequence: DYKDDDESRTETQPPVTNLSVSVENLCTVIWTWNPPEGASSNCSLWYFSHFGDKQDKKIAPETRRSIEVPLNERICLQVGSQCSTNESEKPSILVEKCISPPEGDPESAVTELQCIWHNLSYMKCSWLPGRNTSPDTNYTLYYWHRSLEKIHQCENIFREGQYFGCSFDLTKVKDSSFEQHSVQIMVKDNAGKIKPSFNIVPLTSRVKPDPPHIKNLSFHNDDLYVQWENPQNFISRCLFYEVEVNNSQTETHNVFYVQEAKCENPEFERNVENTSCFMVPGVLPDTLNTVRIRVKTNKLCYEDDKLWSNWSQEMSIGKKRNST

[2] = molecular target: T2, human IL-13Rα1 on normal human dermal fibroblast (NHDF) cells (human) (UniProt P78552); assay: cell-based or functional assay
T2 sequence: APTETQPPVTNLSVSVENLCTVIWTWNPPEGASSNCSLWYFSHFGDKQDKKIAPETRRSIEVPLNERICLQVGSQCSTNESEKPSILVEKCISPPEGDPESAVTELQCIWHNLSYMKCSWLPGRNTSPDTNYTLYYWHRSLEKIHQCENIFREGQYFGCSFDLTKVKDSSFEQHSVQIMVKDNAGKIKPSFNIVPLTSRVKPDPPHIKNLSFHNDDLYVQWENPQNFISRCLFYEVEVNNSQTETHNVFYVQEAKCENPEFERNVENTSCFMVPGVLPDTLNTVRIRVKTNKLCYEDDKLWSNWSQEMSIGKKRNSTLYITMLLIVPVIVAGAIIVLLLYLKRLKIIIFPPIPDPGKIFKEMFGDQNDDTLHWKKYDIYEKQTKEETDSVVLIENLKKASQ

[3] = molecular target: T1, hIL-13Rα1.ECR (N-terminal FLAG-tagged fusion protein of the extracellular region of human IL-13Rα1) (human); assay: ELISA on plate-bound hIL-13Rα1.ECR

- Kd [1]: 5.8 nM
- NHDF cells IL-13 Eotaxin release (IC50) [on average] [2]: 0.35 µg/mL
- Kd [3]: 1.2 nM
B1: 4A10 (antibody, part only; not given: light chain, V domains shown, part only)
VH: QVQLVESGGGVVQPGRSLRLSCAASGFTFSNYGMHWVRQAPGKGLEWVAAIWYDGSDKNYADSVKGRVTISRDTSKKTLYLQMNSLRAEDTAIYYCAREITIMRGLIKNYYYYGMDVWGQGTTVTVSS
